Patent publication WO2021226442A2 (dated 2021)
Numbering of substitutions follows the chain as printed. Names and notes keep the numbering of the source.

What was measured:
[1] = molecular target: T1, human complement component C3 (human, UniProt P01024 23-667; P01024 672-1663); assay: SPR (Biacore)
T1 construct: Purified human C3 (Complement Technologies); also called human C3

[2] = molecular target: T1, human complement component C3; assay: cell-based or functional assay
[3] = molecular target: T1, human complement component C3; assay: SPR (Biacore), antibody captured, C3 injected, 37 C
[4] = molecular target: T2, cynomolgus monkey complement component C3 (cynomolgus monkey, UniProt P01024 24-1663 (human entry)); assay: as above
T2 construct: In the hemolysis assays cyno serum was the source of C3; also called cyno C3

[5] = molecular target: T1, human complement component C3; assay: SPR (Biacore), compared with Hz38G10
[6] = molecular target: T1, human complement component C3; assay: SPR (Biacore), antibody captured by anti-Fc on CM5 chip, C3 injected 0.62-40 nM, 37 C
[7] = molecular target: T2, cynomolgus monkey complement component …; assay: as above

T2 sequence (P01024 other isoform, or with tags, fused parts or gaps): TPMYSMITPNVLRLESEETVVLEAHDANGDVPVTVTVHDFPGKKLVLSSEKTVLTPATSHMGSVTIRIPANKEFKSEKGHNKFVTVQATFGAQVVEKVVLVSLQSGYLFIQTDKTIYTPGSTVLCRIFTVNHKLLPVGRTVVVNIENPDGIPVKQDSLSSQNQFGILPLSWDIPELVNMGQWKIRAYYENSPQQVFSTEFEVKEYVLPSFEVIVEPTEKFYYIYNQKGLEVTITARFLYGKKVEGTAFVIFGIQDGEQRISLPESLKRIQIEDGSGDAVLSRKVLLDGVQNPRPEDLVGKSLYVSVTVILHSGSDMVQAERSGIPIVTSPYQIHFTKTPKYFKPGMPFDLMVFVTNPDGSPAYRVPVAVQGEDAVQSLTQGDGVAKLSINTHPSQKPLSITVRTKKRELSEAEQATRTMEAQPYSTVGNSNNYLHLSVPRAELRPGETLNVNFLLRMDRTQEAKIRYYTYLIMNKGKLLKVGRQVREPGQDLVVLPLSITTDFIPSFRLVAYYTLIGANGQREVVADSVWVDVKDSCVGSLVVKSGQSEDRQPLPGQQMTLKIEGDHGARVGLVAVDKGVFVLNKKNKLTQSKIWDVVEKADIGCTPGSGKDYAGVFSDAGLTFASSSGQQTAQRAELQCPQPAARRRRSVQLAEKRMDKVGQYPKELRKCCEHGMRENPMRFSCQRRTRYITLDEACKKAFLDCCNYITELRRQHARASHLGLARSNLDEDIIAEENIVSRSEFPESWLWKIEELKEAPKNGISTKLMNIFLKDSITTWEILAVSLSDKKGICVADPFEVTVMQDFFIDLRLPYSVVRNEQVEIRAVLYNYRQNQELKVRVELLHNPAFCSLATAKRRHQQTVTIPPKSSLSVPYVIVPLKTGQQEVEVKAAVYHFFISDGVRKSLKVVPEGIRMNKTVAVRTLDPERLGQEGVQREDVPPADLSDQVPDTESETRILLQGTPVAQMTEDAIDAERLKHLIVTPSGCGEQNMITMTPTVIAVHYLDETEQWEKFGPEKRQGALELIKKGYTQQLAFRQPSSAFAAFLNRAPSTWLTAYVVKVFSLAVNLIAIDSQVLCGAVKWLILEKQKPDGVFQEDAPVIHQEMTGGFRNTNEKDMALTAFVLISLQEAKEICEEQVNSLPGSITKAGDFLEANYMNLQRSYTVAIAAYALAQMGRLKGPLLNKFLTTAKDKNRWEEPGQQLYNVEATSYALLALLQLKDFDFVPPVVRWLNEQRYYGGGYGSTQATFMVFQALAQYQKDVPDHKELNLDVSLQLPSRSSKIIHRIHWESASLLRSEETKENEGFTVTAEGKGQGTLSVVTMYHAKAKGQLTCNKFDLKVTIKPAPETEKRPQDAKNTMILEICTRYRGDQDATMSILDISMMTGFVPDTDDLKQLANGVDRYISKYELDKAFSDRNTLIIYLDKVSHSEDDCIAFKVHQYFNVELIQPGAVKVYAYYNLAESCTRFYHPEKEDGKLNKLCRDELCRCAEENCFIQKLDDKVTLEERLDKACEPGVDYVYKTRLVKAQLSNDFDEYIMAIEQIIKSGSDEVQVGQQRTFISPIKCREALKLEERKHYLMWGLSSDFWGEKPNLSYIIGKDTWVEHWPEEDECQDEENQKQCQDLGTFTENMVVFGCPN
T1 sequence (P01024 23-667, chain 1 of 2): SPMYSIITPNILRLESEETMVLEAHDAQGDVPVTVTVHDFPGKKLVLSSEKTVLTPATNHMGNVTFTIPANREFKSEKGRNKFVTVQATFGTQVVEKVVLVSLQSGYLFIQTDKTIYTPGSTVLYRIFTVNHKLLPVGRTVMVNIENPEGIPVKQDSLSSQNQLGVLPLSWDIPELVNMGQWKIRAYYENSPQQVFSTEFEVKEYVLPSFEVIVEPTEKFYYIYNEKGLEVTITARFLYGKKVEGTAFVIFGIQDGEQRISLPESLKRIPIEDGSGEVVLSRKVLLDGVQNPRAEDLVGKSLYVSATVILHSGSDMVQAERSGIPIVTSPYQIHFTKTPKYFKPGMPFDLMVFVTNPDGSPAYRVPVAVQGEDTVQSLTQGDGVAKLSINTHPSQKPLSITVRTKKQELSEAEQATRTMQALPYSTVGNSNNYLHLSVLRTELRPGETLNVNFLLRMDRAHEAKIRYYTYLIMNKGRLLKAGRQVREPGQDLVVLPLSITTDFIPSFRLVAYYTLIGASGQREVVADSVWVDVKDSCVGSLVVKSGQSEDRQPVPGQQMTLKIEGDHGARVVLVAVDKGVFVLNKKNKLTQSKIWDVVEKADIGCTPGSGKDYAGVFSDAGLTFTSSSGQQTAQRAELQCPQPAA
T1 sequence (P01024 672-1663, chain 2 of 2): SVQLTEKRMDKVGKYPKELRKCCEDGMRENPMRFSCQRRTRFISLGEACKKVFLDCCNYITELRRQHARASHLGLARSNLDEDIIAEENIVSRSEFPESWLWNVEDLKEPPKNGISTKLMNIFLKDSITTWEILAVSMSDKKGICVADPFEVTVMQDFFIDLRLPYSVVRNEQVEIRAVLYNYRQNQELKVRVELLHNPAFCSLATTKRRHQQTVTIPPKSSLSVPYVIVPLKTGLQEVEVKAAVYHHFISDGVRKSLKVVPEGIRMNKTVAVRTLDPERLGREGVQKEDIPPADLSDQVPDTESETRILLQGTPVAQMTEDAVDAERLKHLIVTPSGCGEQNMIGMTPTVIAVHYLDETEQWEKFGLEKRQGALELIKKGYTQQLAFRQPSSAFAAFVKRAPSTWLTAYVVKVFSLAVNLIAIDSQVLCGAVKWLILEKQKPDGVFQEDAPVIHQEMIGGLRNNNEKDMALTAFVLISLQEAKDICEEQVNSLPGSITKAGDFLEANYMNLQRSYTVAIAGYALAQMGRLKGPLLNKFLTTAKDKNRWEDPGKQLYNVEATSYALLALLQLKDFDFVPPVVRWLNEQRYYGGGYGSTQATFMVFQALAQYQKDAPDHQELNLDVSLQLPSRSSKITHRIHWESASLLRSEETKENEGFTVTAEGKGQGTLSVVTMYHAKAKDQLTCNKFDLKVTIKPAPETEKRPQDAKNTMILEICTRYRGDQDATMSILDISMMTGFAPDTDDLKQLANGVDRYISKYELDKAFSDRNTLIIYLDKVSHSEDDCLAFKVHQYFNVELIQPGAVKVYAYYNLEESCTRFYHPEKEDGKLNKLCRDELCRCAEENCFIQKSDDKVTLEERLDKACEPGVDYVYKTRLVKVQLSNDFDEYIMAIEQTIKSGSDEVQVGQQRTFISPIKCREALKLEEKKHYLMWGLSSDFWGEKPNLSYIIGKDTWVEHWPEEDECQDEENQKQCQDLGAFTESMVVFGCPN

B1: Hz38G10 dsscFv (VL-linker-VH disulfide-stabilized scFv) (scFv)
scFv: MDIQMTQSPSSLSASVGDRVTITCKASENVDTYVSWYQQKPGKAPKLLIYGASNRYTGVPSRFSGSGSGTDFTFTISSLQPEDIATYHCGQSHSYPLTFGCGTKLEIKGGGGSGGGGSGGGGSQVQLVQSGAEVKKPGASVKVSCKASGYTFTDFYMDWVRQAPGQCLEWMGYIYPHNGGTTYNQQFTGRVTITVDKSASTAYMELSSLRSEDTAVYYCARRGGFDFDYWGQGTLVTVSS
notes: scFv with an engineered disulfide bond between VL and VH; also called Hz38G10 VL-linker-VH dsscFv
binding result [1]: binds

B2: antibody Hz38G10 (antibody, human IgG1, kappa, V domains shown)
VH: QVQLVQSGAEVKKPGASVKVSCKASGYTFTDFYMDWVRQAPGQRLEWMGYIYPHNGGTTYNQQFTGRVTITVDKSASTAYMELSSLRSEDTAVYYCARRGGFDFDYWGQGTLVTVSS
VL: DIQMTQSPSSLSASVGDRVTITCKASENVDTYVSWYQQKPGKAPKLLIYGASNRYTGVPSRFSGSGSGTDFTFTISSLQPEDIATYHCGQSHSYPLTFGQGTKLEIKR
notes: also called humanized 38G10; Hz38G10 intact antibody
alternative pathway hemolysis assay, fold against COMP or COMP-PEG [2]: ~10 fold | Kd [3]: 0.3 nM | Kd [4]: 1.8 nM

B3: variant of antibody Hz38G10 with a N55D mutation in the heavy chain CDR2 (antibody, V domains shown)
VH: B2 VH with N55D
VL: DIQMTQSPSSLSASVGDRVTITCKASENVDTYVSWYQQKPGKAPKLLIYGASNRYTGVPSRFSGSGSGTDFTFTISSLQPEDIATYHCGQSHSYPLTFGQGTKLEIK
notes: Mimics a fully deamidated molecule; also called Hz38G10 N55D variant
binding result [1]: binds

B4: antibody Hz38G10(G56A) (antibody, human IgG1, kappa, V domains shown)
VH: B2 VH with G56A
VL: B2 VL
binding result [5]: binds

B5: antibody Hz38G10(N55E) (antibody, V domains shown)
VH: B2 VH with N55E
VL: B3 VL
binding result [5]: binds

B6: antibody Hz38G10(G56T) (antibody, V domains shown)
VH: B2 VH with G56T
VL: B3 VL
binding result [5]: binds

B7: antibody Hz38G10(N55Q) (antibody, V domains shown)
VH: B2 VH with N55Q
VL: B3 VL
binding result [5]: binds

B8: antibody 38G10 (antibody, V domains shown)
VH: EVQLQQSGPELVKPGDSVKMSCKASGYTFTDFYMDWVKQSHGKSLEWIGYIYPHNGGTTYNQNFTGKATLTVDKSSNTAYMELHSLTSEDSAVYYCARRGGFDFDYWGQGTTLTVSS
VL: NIVMTQSPKSMSLSVGERVTLRCKASENVDTYVSWYQQKPEQSPKLLIYGASNRYTGVPDRFTGSGSATEFTLTISSVQAEDLVGYHCGQSHSYPLTFGAGTKLELK
notes: Mouse hybridoma monoclonal antibody; also called parental 38G10 antibody
Kd [3]: ~0.1 nM | Kd [4]: ~0.1 nM | Kd [6]: 0.19 nM | Kd [7]: 0.16 nM
